According to US20250171562A1:

Each binder was assayed against mixture of three Der p 2 specific recombinant human IgE clones H10, H12, P4E (human) (UniProt P01854) (assay: RBL-SX38 IgE displacement, FACS).
Chain of mixture of three Der p 2 specific recombinant human IgE clones H10, H12, P4E (human) (P01854 other isoform, or with tags, fused parts or gaps): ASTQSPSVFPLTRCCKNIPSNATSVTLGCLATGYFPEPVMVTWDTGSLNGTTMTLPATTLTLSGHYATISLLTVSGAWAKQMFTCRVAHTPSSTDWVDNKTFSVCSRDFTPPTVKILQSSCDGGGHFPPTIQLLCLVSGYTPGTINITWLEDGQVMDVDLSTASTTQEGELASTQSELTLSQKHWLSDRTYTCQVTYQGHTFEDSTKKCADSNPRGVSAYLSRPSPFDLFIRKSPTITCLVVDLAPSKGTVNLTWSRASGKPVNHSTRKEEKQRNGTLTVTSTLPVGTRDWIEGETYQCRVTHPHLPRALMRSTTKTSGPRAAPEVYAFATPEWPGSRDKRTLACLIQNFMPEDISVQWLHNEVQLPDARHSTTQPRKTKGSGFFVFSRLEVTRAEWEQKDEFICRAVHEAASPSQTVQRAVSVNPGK

Binder	Max effect/effect 1 µM [%]	EC50 [nM]
CIgG4F2A1(G4S)3 (Fc fusion) chain 1: GPPCPPCPAPEFLGGPSVFLFPPKPKDTLMISRTPEVTCVVVDVSQEDPEVQFNWYVDGVEVHNAKTKPREEQFNSTYRVVSVLTVLHQDWLNGKEYKCKVSNKGLPSSIEKTISKAKGQPREPQVYTLPPCQEEMTKNQVSLWCLVKGFYPSDIAVEWESNGQPENNYKTTPPVLDSDGSFFLYSRLTVDKSRWQEGNVFSCSVMHEALHNHYTQKSLSLSLGKGGGGSGGGGSGGGGSDVQLQESGGGLVQAGGSLKLSCAASGGSLSRYDMGWFRQAPGKEREFVARISWSGDTKYYADAVEGRFAISRDNAQNTVYLQMNSLKPEDTAVYYCAVALYGNRGYYDVNTYSYWGQGTRVTVS chain 2: GPPCPPCPAPEFLGGPSVFLFPPKPKDTLMISRTPEVTCVVVDVSQEDPEVQFNWYVDGVEVHNAKTKPREEQFNSTYRVVSVLTVLHQDWLNGKEYKCKVSNKGLPSSIEKTISKAKGQPREPQVCTLPPSQEEMTKNQVSLSCAVKGFYPSDIAVEWESNGQPENNYKTTPPVLDSDGSFFLVSRLTVDKSRWQEGNVFSCSVMHEALHNHYTQKSLSLSLGKGGGGSGGGGSGGGGSEVQLLESGGGLVQPGGSLRLSCAASGFTFGNYDMAWVRQAPGKRPEWVSSIDTGGDITHYADSVKGRFTISRDNAKNTLYLQMNSLRPEDTAVYWCATDEEYALGPNEFDYYGQGTLVTVSS	2	
NIgG4F2A1(G4S)3 (Fc fusion) chain 1: DVQLQESGGGLVQAGGSLKLSCAASGGSLSRYDMGWFRQAPGKEREFVARISWSGDTKYYADAVEGRFAISRDNAQNTVYLQMNSLKPEDTAVYYCAVALYGNRGYYDVNTYSYWGQGTRVTVSGGGGSGGGGSGGGGSGPPCPPCPAPEFLGGPSVFLFPPKPKDTLMISRTPEVTCVVVDVSQEDPEVQFNWYVDGVEVHNAKTKPREEQFNSTYRVVSVLTVLHQDWLNGKEYKCKVSNKGLPSSIEKTISKAKGQPREPQVYTLPPCQEEMTKNQVSLWCLVKGFYPSDIAVEWESNGQPENNYKTTPPVLDSDGSFFLYSRLTVDKSRWQEGNVFSCSVMHEALHNHYTQKSLSLSLGK chain 2: EVQLLESGGGLVQPGGSLRLSCAASGFTFGNYDMAWVRQAPGKRPEWVSSIDTGGDITHYADSVKGRFTISRDNAKNTLYLQMNSLRPEDTAVYWCATDEEYALGPNEFDYYGQGTLVTVSSGGGGSGGGGSGGGGSGPPCPPCPAPEFLGGPSVFLFPPKPKDTLMISRTPEVTCVVVDVSQEDPEVQFNWYVDGVEVHNAKTKPREEQFNSTYRVVSVLTVLHQDWLNGKEYKCKVSNKGLPSSIEKTISKAKGQPREPQVCTLPPSQEEMTKNQVSLSCAVKGFYPSDIAVEWESNGQPENNYKTTPPVLDSDGSFFLVSRLTVDKSRWQEGNVFSCSVMHEALHNHYTQKSLSLSLGK	95	2
CIgG4F2A1(G4S)1 (Fc fusion) chain 1: GPPCPPCPAPEFLGGPSVFLFPPKPKDTLMISRTPEVTCVVVDVSQEDPEVQFNWYVDGVEVHNAKTKPREEQFNSTYRVVSVLTVLHQDWLNGKEYKCKVSNKGLPSSIEKTISKAKGQPREPQVYTLPPCQEEMTKNQVSLWCLVKGFYPSDIAVEWESNGQPENNYKTTPPVLDSDGSFFLYSRLTVDKSRWQEGNVFSCSVMHEALHNHYTQKSLSLSLGKGGGGSDVQLQESGGGLVQAGGSLKLSCAASGGSLSRYDMGWFRQAPGKEREFVARISWSGDTKYYADAVEGRFAISRDNAQNTVYLQMNSLKPEDTAVYYCAVALYGNRGYYDVNTYSYWGQGTRVTVS chain 2: GPPCPPCPAPEFLGGPSVFLFPPKPKDTLMISRTPEVTCVVVDVSQEDPEVQFNWYVDGVEVHNAKTKPREEQFNSTYRVVSVLTVLHQDWLNGKEYKCKVSNKGLPSSIEKTISKAKGQPREPQVCTLPPSQEEMTKNQVSLSCAVKGFYPSDIAVEWESNGQPENNYKTTPPVLDSDGSFFLVSRLTVDKSRWQEGNVFSCSVMHEALHNHYTQKSLSLSLGKGGGGSEVQLLESGGGLVQPGGSLRLSCAASGFTFGNYDMAWVRQAPGKRPEWVSSIDTGGDITHYADSVKGRFTISRDNAKNTLYLQMNSLRPEDTAVYWCATDEEYALGPNEFDYYGQGTLVTVSS	11	
NIgG4F2A1(RS) (Fc fusion) chain 1: DVQLQESGGGLVQAGGSLKLSCAASGGSLSRYDMGWFRQAPGKEREFVARISWSGDTKYYADAVEGRFAISRDNAQNTVYLQMNSLKPEDTAVYYCAVALYGNRGYYDVNTYSYWGQGTRVTVSRSGPPCPPCPAPEFLGGPSVFLFPPKPKDTLMISRTPEVTCVVVDVSQEDPEVQFNWYVDGVEVHNAKTKPREEQFNSTYRVVSVLTVLHQDWLNGKEYKCKVSNKGLPSSIEKTISKAKGQPREPQVYTLPPCQEEMTKNQVSLWCLVKGFYPSDIAVEWESNGQPENNYKTTPPVLDSDGSFFLYSRLTVDKSRWQEGNVFSCSVMHEALHNHYTQKSLSLSLGK chain 2: EVQLLESGGGLVQPGGSLRLSCAASGFTFGNYDMAWVRQAPGKRPEWVSSIDTGGDITHYADSVKGRFTISRDNAKNTLYLQMNSLRPEDTAVYWCATDEEYALGPNEFDYYGQGTLVTVSSRSGPPCPPCPAPEFLGGPSVFLFPPKPKDTLMISRTPEVTCVVVDVSQEDPEVQFNWYVDGVEVHNAKTKPREEQFNSTYRVVSVLTVLHQDWLNGKEYKCKVSNKGLPSSIEKTISKAKGQPREPQVCTLPPSQEEMTKNQVSLSCAVKGFYPSDIAVEWESNGQPENNYKTTPPVLDSDGSFFLVSRLTVDKSRWQEGNVFSCSVMHEALHNHYTQKSLSLSLGK	88	2

Further lines, results first:

Max effect/effect 1 µM [%]	EC50 [nM]	Binder
94	2	NIgG4F2A1(G4S)2 (Fc fusion) chain 1: DVQLQESGGGLVQAGGSLKLSCAASGGSLSRYDMGWFRQAPGKEREFVARISWSGDTKYYADAVEGRFAISRDNAQNTVYLQMNSLKPEDTAVYYCAVALYGNRGYYDVNTYSYWGQGTRVTVSGGGGSGGGGSGPPCPPCPAPEFLGGPSVFLFPPKPKDTLMISRTPEVTCVVVDVSQEDPEVQFNWYVDGVEVHNAKTKPREEQFNSTYRVVSVLTVLHQDWLNGKEYKCKVSNKGLPSSIEKTISKAKGQPREPQVYTLPPCQEEMTKNQVSLWCLVKGFYPSDIAVEWESNGQPENNYKTTPPVLDSDGSFFLYSRLTVDKSRWQEGNVFSCSVMHEALHNHYTQKSLSLSLGK chain 2: EVQLLESGGGLVQPGGSLRLSCAASGFTFGNYDMAWVRQAPGKRPEWVSSIDTGGDITHYADSVKGRFTISRDNAKNTLYLQMNSLRPEDTAVYWCATDEEYALGPNEFDYYGQGTLVTVSSGGGGSGGGGSGPPCPPCPAPEFLGGPSVFLFPPKPKDTLMISRTPEVTCVVVDVSQEDPEVQFNWYVDGVEVHNAKTKPREEQFNSTYRVVSVLTVLHQDWLNGKEYKCKVSNKGLPSSIEKTISKAKGQPREPQVCTLPPSQEEMTKNQVSLSCAVKGFYPSDIAVEWESNGQPENNYKTTPPVLDSDGSFFLVSRLTVDKSRWQEGNVFSCSVMHEALHNHYTQKSLSLSLGK
92	2	NIgG4F2A1(G4S)1 (Fc fusion) chain 1: DVQLQESGGGLVQAGGSLKLSCAASGGSLSRYDMGWFRQAPGKEREFVARISWSGDTKYYADAVEGRFAISRDNAQNTVYLQMNSLKPEDTAVYYCAVALYGNRGYYDVNTYSYWGQGTRVTVSGGGGSGPPCPPCPAPEFLGGPSVFLFPPKPKDTLMISRTPEVTCVVVDVSQEDPEVQFNWYVDGVEVHNAKTKPREEQFNSTYRVVSVLTVLHQDWLNGKEYKCKVSNKGLPSSIEKTISKAKGQPREPQVYTLPPCQEEMTKNQVSLWCLVKGFYPSDIAVEWESNGQPENNYKTTPPVLDSDGSFFLYSRLTVDKSRWQEGNVFSCSVMHEALHNHYTQKSLSLSLGK chain 2: EVQLLESGGGLVQPGGSLRLSCAASGFTFGNYDMAWVRQAPGKRPEWVSSIDTGGDITHYADSVKGRFTISRDNAKNTLYLQMNSLRPEDTAVYWCATDEEYALGPNEFDYYGQGTLVTVSSGGGGSGPPCPPCPAPEFLGGPSVFLFPPKPKDTLMISRTPEVTCVVVDVSQEDPEVQFNWYVDGVEVHNAKTKPREEQFNSTYRVVSVLTVLHQDWLNGKEYKCKVSNKGLPSSIEKTISKAKGQPREPQVCTLPPSQEEMTKNQVSLSCAVKGFYPSDIAVEWESNGQPENNYKTTPPVLDSDGSFFLVSRLTVDKSRWQEGNVFSCSVMHEALHNHYTQKSLSLSLGK
3		CIgG4F2A1(RS) (Fc fusion) chain 1: GPPCPPCPAPEFLGGPSVFLFPPKPKDTLMISRTPEVTCVVVDVSQEDPEVQFNWYVDGVEVHNAKTKPREEQFNSTYRVVSVLTVLHQDWLNGKEYKCKVSNKGLPSSIEKTISKAKGQPREPQVYTLPPCQEEMTKNQVSLWCLVKGFYPSDIAVEWESNGQPENNYKTTPPVLDSDGSFFLYSRLTVDKSRWQEGNVFSCSVMHEALHNHYTQKSLSLSLGKRSDVQLQESGGGLVQAGGSLKLSCAASGGSLSRYDMGWFRQAPGKEREFVARISWSGDTKYYADAVEGRFAISRDNAQNTVYLQMNSLKPEDTAVYYCAVALYGNRGYYDVNTYSYWGQGTRVTVS chain 2: GPPCPPCPAPEFLGGPSVFLFPPKPKDTLMISRTPEVTCVVVDVSQEDPEVQFNWYVDGVEVHNAKTKPREEQFNSTYRVVSVLTVLHQDWLNGKEYKCKVSNKGLPSSIEKTISKAKGQPREPQVCTLPPSQEEMTKNQVSLSCAVKGFYPSDIAVEWESNGQPENNYKTTPPVLDSDGSFFLVSRLTVDKSRWQEGNVFSCSVMHEALHNHYTQKSLSLSLGKRSEVQLLESGGGLVQPGGSLRLSCAASGFTFGNYDMAWVRQAPGKRPEWVSSIDTGGDITHYADSVKGRFTISRDNAKNTLYLQMNSLRPEDTAVYWCATDEEYALGPNEFDYYGQGTLVTVSS
0		CIgG4F2A1(G4S)2 (Fc fusion) chain 1: GPPCPPCPAPEFLGGPSVFLFPPKPKDTLMISRTPEVTCVVVDVSQEDPEVQFNWYVDGVEVHNAKTKPREEQFNSTYRVVSVLTVLHQDWLNGKEYKCKVSNKGLPSSIEKTISKAKGQPREPQVYTLPPCQEEMTKNQVSLWCLVKGFYPSDIAVEWESNGQPENNYKTTPPVLDSDGSFFLYSRLTVDKSRWQEGNVFSCSVMHEALHNHYTQKSLSLSLGKGGGGSGGGGSDVQLQESGGGLVQAGGSLKLSCAASGGSLSRYDMGWFRQAPGKEREFVARISWSGDTKYYADAVEGRFAISRDNAQNTVYLQMNSLKPEDTAVYYCAVALYGNRGYYDVNTYSYWGQGTRVTVS chain 2: GPPCPPCPAPEFLGGPSVFLFPPKPKDTLMISRTPEVTCVVVDVSQEDPEVQFNWYVDGVEVHNAKTKPREEQFNSTYRVVSVLTVLHQDWLNGKEYKCKVSNKGLPSSIEKTISKAKGQPREPQVCTLPPSQEEMTKNQVSLSCAVKGFYPSDIAVEWESNGQPENNYKTTPPVLDSDGSFFLVSRLTVDKSRWQEGNVFSCSVMHEALHNHYTQKSLSLSLGKGGGGSGGGGSEVQLLESGGGLVQPGGSLRLSCAASGFTFGNYDMAWVRQAPGKRPEWVSSIDTGGDITHYADSVKGRFTISRDNAKNTLYLQMNSLRPEDTAVYWCATDEEYALGPNEFDYYGQGTLVTVSS
